Assay: soluble on expression in E. coli; label from the status in PepcDB or PDB records

Sequence	soluble on expression in E. coli
MPLLDIRHLTIEIDTPQGLVKAVDRMSLTMNEGEIRGLVGESGSGKSLVAKAIVGICKENWRVTADRMRLGNIDLLQLTPRERRRVIARDVAMIFQEPSTCLDPSEEVGRQLIESIPFRTFEGRWWERFTWRKKQAIALLHKVGIKDHKDIMSSYPYELTDGECQKVMIAMAIAAKPKLLIADEPTNDVDPITQSQILRLLSRMNQVNNTSILLIGHDLTTITQWADRITVMYCGQSVESAETAKIVAEPKHPYTAALLKAMPDFSDWIPHKQKLQSLPGSIPPLQHLPIGCRLGPRCPYAQRQCVEVPHSRWVKNHKFSCHFPLNMESPQ	not soluble
MSLNKVLVVEDEQLLAQNLQDYLSAQGLEVRIAHDGAEGIGLAETFAPDVLVFDYRLPDMEGFEVLDAVRQNRTCHFVLITGHPTAEVCERARQLGVSHILFKPFPLAELARAVCDLLGIQREAKPGASPSEGFVERRQSRTESFPLQLYDGSWVLADRRRNRSEAMAPDDDQMLTGEEGHHHHHH	not soluble
MTQQHPHLLEPELGEFLTALKNTPSRLTARTAAWLCIWTASRPGMVRLAEWKEFDLDKATWTTPAAKMKMRRDFVCPLPHQAIAALKELHCLTGRSRWLFPGVGAKNPTISENTINKVFATIGYKGRLVGHGTRHTASTLLREHGWPKEHVEAQLAHKEEGLEHHHHHH	not soluble
MPGGRRRGFDDQVALQTAMELFWRQGYEGTSITDLTKALGINPPSLYAAFGSKRDLFEKTLDRYMCERTLQLEEAMVRPTAHEAVLDFLTGRVEVFTAPGQPFGCMTVQAGLASGEPHHEIVDLLTAAREQMRQTVLDRFEKALADGDLPAGTDCTALARYVMAAVYGLSVEAASGAPREELTAAAILAAQVVPRAQM	soluble
MGSDKIHHHHHHMFGYVKINKMDLTFREYDYYKAYYCGLCKYLKRNHGEISRFSLNYDITFLIVLLTAVYNPESISTEEVCIVNPFKKKKVITNDITEYAASMNILLTYYKLEDNLMDDKRIKDKLAYYIYKNKLKLAYEKYPEKAEYIKQQLNELNKLEKDKNINIDEVSSIFGNIMGEVFVYKKDENERNLRMIGFNIGKYIYLLDAYEDLDEDFKKGRYNPFIEYIDKNDELKEKVKKIIVTSLGFLARGIDNLNLNKNVGIIENIIYSGVYLRYINILESRGGKNVQ	not soluble
MGSDKIHHHHHHMKKLLNTLYLTQEDFYVTKEGDNIVIKQEGKVLKRFPFRIIDGIVCFSYLGVSSALVKLCTENQINLSFHTPQGRFCGRYIGSTNGNVLLRREHYRLSDREESLEYAKRFILAKISNSRKYLLRFKRDHRQQIDTKLFEAVNDELIWALEMVQAADNKDSLRGIEGQAANQYFRIFNDLVLTDKKTFYFQGRSKRPPLDCVNALLSFGYSLLTFECQSALEAVGLDSYVGFFHTDRPGRASLALDLVEEFRSYIVDRFVFSLINKGQLQKKHFEVKENGSILLTENGRAIFIDLWQKRKHTEVEHPFTKEKVKLMLLPYVQAQLLAKAIRGDLESYPPFMV	not soluble
MTSVTDRSAHSAERSTEHTIDIHTTAGKLAELHKRREESLHPVGEDAVEKVHAKGKLTARERIYALLDEDSFVELDALAKHRSTNFNLGEKRPLGDGVVTGYGTIDGRDVCIFSQDATVFGGSLGEVYGEKIVKVQELAIKTGRPLIGINDGAGARIQEGVVSLGLYSRIFRNNILASGVIPQISLIMGAAAGGHVYSPALTDFVIMVDQTSQMFITGPDVIKTVTGEEVTMEELGGAHTHMAKSGTAHYAASGEQDAFDYVRELLSYLPPNNSTDAPRYQAAAPTGPIEENLTDEDLELDTLIPDSPNQPYDMHEVITRLLDDEFLEIQAGYAQNIVVGFGRIDGRPVGIVANQPTHFAGCLDINASEKAARFVRTCDCFNIPIVMLVDVPGFLPGTDQEYNGIIRRGAKLLYAYGEATVPKITVITRKAYGGAYCVMGSKDMGCDVNLAWPTAQIAVMGASGAVGFVYRQQLAEAAANGEDIDKLRLRLQQEYEDTLVNPYVAAERGYVDAVIPPSHTRGYIGTALRLLERKIAQLPPKKHGNVPL	soluble
MKFSSLLQDTAAIDVFIKILTSVSKLSKKRCCVKIEKNALNFICCSGLHDGGSWFSLSIPYSSQIFRKFDMVGMNPRNEEQNLIYFELEIDSLVRVLPGGHCYLKLKLSKSQKDEPMLSVEVRNPEADIVSHQIPITIILSKYWNSYSRPSIGHRKMSISMPPPKMMSRFLHVFKNMNTRVVKLTASTSGDLRISTKIETGEIDVSFSDLQTNPSETDSQEDTAKVQLMIRNISPLFQSFANTRTRAKMNIISNRMAEFNFHNEDCVLSYIVGNVSD	not soluble
MPTAADNHWSMPPNPEKALMLAQRAVAVFVYDAVRLEGINFTLPEVQTLLQGVTVGGHRLSDQQIAVNQGEAWKLLFQMIRDGRFELTPDCAMALHGVAAKEEALEWGCFRSGSVLIAGTEYEPPAASELPTRFDRMIDELQHMDDVHDQAVHLFLTMARCQFFYDVNKRMGRFMMNGHLLSNGYPAINIPASSQLEFNELMLRFYDSGDQREMNAFVRSCMDERVVLIMKEELEHHHHHH	soluble
MGSDKIHHHHHHVAASPLRGRTPHRRGPRACRRGPLPRVGAGGLRQMTATEAYLQKGWLRFAAEESIRDWAAHAQRCAETATADPAHAKWLDCEGTWFIGVDALPNDPDGRLPSGPPLEGAALDFIRAHFGEIPALHRAQLSVIYPGYPRPRRGESDAAFGYRCKRDGAHVDGIKIYGTARRRRVEEPHAWVLGLPLNKTSKNAAPLVVWEGSHLIMREAFRLAFEGIALEDWAHVDITDIYTAARREVFETCKRVEVHANPGEAYLMHRLCLHGVAPWADGASATDGAGRMIAYFRPEMPNWQAHWLSDL	not soluble
MTTVIVANDLVGFGKVALTSSLLPIMSACQTEVLPLPTVLLSSHTGEFDNIYVRYLTVDMQGFCGQWKRLDFRVDGLVGGYFKSEEELGLVSQCLTKKRFLFLLDPIMGDNGRLYQGFDRDYVEAMKDFCQQADVIIPNLTEAALLTGSPYLEEGSYDMTTIENLLRNLSRLGPRKVILTGISFETEKIGLAYFDKETNQVIYRMRKRYQSHFYGSGDLLTAILSAGYFHNLDFLKVCDLALDFLNKVLLFTLSSGRPLKYGLCYEPLYRLFI	soluble
MGKLYVVPTPVGNLEDMTFRAIKVLKEADLILAEDTRTSGILLKHFEIKNVMQSHHKFNEHKTVESVVNRIKAGETIALISDAGTPGISDPGFLVVRECVRNGIEVQCLPGA	not soluble
MGSDKIHHHHHHDSLTESSSNTFWQTPDDALMALASCYDALQSNQLYNSDQYSLGPLYMDCISDNGGHFNWSGWMEGYDMAMGIHTPSSSIIGSYWKDCYEVISRCNVLIANIDRVDMDASQKAIYQAEAKTIRALMYINLTMTYQDVPFLTAPLTIDEAECEKTDRAAIVAHVMTDLQDAAEVLPQNASSRGHITKGAALSLLGRVALYNEKWDDAIAAYKQVQGLGYSLDPSYAKLFTQSGETSPEIIFAVRYEGPGMSEGAAFNAHWNTPLEAMNGTIDLADAYYCKDGKPTTDTKIAELNGGGGLDVSKPNPAHFENRDPRLYSTLFVPGMLWNGKGGIDTSASNPYANVYGGAAASLSTVYVYKYFDPTDTSNSWDNGQDFYVVRYAEVLLSLAEAMVQKGGYVYSDVTALVNEVRQRADVNMPTVEEVEGTSLSKDELLEVIKHERRVELAFEGLRLFDLYRWKELDKAVANIENERTMYGLAYEARKFNGERDYVWPLPTAELDTNKKLVQHDLWK	not soluble
MAHHHHHHMTLKEAIDRDGVPATSSSKQRRLMDIHVTAYPGLVNQHMLPKHNTAVNDFSSIDPLQYRKAHTVRNNNAASYSEKEENVLDMLTTNQCTNRMTRLGMQLREERAKNPKGMPSISSLAPRGYRSRFLSPSFDERSTYRWDYCQWEPDGFHDTVRRELLAAYRDDWTEDEKADVDISMKIPYLTMAVSSDRLKDKATIYRKDFMEDATQADYRSLSYKTNLEDLGTSYAYSAYSIDDPRRKVLFDASVAALKTPHSVLEKTYSPRNSFLEKSLSTKQQSSAREELDRLRTMRREALHLSAAKRSAAESTDDGTTTKTVVIPGIKGSGYRRVPKGNDSYVCLSRDHFCYQQVDNF	not soluble
MRRDYMSVYDYPVPTTPWLNTAPGLFIDDYTSTASSTVSSLSRTLIYDYEQNPDSGNNVVALAAKAGYSTWWISNQGKLGEHDTRISVIASDAEHATFLKKGSFASRKTDDKLLLQETERALADTSSPKIIFLHMMGSHPNPCDSLNSLEHHHHHH	not soluble
MGSDKIHHHHHHMINRKPFFIELELTYKCSQQCIYCHNPPKDLKFYIADKVPKPRSVIEMNELNLSEWISVINQIKRLDEKYEGIMDVVITGGEPLLRSDLEEILSYVTRQKLRHMLLSSGEPISDDRITKLLESGLEKIRINLTSHKYVFNIQSPIMHIKNEVAKKINIAKKFKDFGVKEVGGNIVLTSYYLDFLEEIAELAYKSNLDWIEIHSVIKVGHGYINQKFIVPDPNDERTIQEKLKRLIEIYGENFIQNYVDTDILYSRIPIPTNWGEVGLVIAPNGDIYPSSEATSIPLSKLGNIKNDSLVEIWFNNLLLNKIRSLSFLREPCKSCEVKKLCRGGFRFNAYITKNDLFAPDPSCQIVKDYIGKS	not soluble
SLPVSYIENQSAVINQGDFLTQLSNIKNYSSKLSTNFYDNYEKITNWVLSGANINELTQFNIQPQIMRGFDGFQNVLMTGYYSPILYARHSPQGQFKNPIYRMPVKKRLSRAQIYAGALAGKRLELAYSDSMLENFLLGVQGSGYVDFGDGNLNYFAYAGQNGYPYTAIGRLLVEDGEIPKEKMSIQAIREWGNRNPSRIQSLLERNEAYVFFKNDPSGKVKGSAGVPLVAMASVASDRNIIPSGSVLLVEVPDIDNNGNWLGTHKLHLMVALDVGGAVKGHHFDLYRGIGARAGHIAGLSKHYGRVWVLR	soluble
MGSDKIHHHHHHTEMEPKFTEPVNINGEDYYKALREYKKSDHPIVFGWYSEWTGTGTNMNNQLRGIPDSMDIVSLWGGAFNLTEAQKSDLKEVREKKGLRVLYCQHITDIGRSHTPASVENDFIVDGVQYNSKDEAMAAYWGWYGNYGDTSEEGQEKAIRKYARVIIDSINKYNYDGFDIDFEPNFGYSGNLSGNSDRMHIFLDELSKEFGPKSGTGRILMVDGEPQTLNKESGPLLDYYVVQAYYCRSDEGYSDALDGRFDRLLNKFGSIEDEATILSKTVWCEDFEKHKGDGGPEFTTRDGIVTYSLKGMAMYYRPGVDARIGGVGAYRFNLCRPVNDYFFMREVIQVLNPANH	not soluble
MQKLIMGNWKMNGNSTSIKELCSGISQVQYDTSRVAIAVFPSSVYVKEVISQLPEKVGVGLQNITFYDDGAYTGEISARMLEDIGCDYLLIGHSERRSLFAESDEDVFKKLNKIIDTTITPVVCIGESLDDRQSGKLKQVLATQLSLILENLSVEQLAKVVIAYEPVWAIGTGVVASLEQIQETHQFIRSLLAKVDERLAKNIKIVYGGSLKAENAKDILSLPDVDGGLIGGASLKAAEFNEIINQANKICTE	not soluble
MVVYDCLTDEDFLQKSEHGIGKKAIYYFYGERCPSCESIKPLFDDLCKKYEKTALVYTYPCYNDDQLTGDAFAVNAVPTFVVMNNGEEVTRHVGAEAEKVQELFEKYAV	not soluble
NKNFTWTTELTVSRNKNKVEKLPNTVQGFDTRNLTSIQEGYSLYSYWVYNQTGVNSQTGAIEIEDVNKDGKITTADRKIMGSVFPKLFGGFNNKFTYKGIDLGIFFIYSYGNKTWNQNEALGEQGGTLGDNRVLMAGQLDRWTTPGQETMVPKLTAANYQYFEVSRFLEDASFIRLRSLTLGYTLPKKWSSAVKTEKIRFYFTGTNLLLITKYTGSDPESNLGQGNLQGYDYDTPPQPRTIQFGLNLTL	not soluble
MGSDKIHHHHHHMLDLGCGDGTLLHYLRDKLDIHGYGVEIDAHNILACMKNGINVIQNDLEAGLSEFEGESFDYVILSQTLQAMKNTEYIIREMLRVGKEGIVSFPNFGYWKNRIQVAGGHMPVSPTLPYQWYDTPNVHLCTLHDFEQLCQQHRVNILERRVMNNDKKVTFLPNLFGILAFYRFSHAA	not soluble
